Measurements as given in publication PMC4470285, “A cell cycle-controlled redox switch regulates the topoisomerase IV activity” (Genes & Development, 2015).

Legend:
[1] = molecular target: NstA(C8Y)-GFP (C. crescentus); assay: non-reducing SDS-PAGE with immunoblot; GFP fusions expressed from the xylX locus in C. crescentus; reducing against non-reducing SDS-PAGE; disulfide-linked dimer; also synchronized cells at 0 and 60 min
[2] = molecular target: NstA-seGFP (C. crescentus); assay: not stated; cells overproducing NstA-seGFP, with or without 7.5 uM NEM (Supplemental Fig. S11B)
[3] = molecular target: the molecule itself; assay: non-reducing SDS-PAGE with immunoblot; GFP fusions expressed from the xylX locus in C. crescentus; reducing against non-reducing SDS-PAGE; disulfide-linked dimer; also synchronized cells at 0 and 60 min

With NstA(C8Y)-GFP (natural protein) the stoichiometry N [1] was 2.

In the case of NstA-seGFP (natural protein), the stoichiometry N [2] is reported as 2.

B1: NstA-GFP (natural protein, C. crescentus, UniProt A0A0H3CC90 1-66, looked up)
chain: MQVFTFFCVESDGSVPRFDVTPCADDAAARVRAFELLDMHHRCDFVEVWRGAQRVFDVFAQQVAAA
notes: NstA (CCNA_03091), C. crescentus, predicted protein of 66 residues; also called functional C-terminal GFP version of wild-type NstA; xylX::Pxyl-nstA-gfp; source: wild-type C. crescentus, expressed from the xylX locus on the chromosome, in lysate; not shown: GFP, C-terminal, kept
For B1, the “stoichiometry N” value [3] was 2.
